The values below come from the supplement of paper PMC12042874.

± gives the uncertainty stated by the source.

The data set is described as follows: amyloid nucleation score (Sup35N fusion, yeast selection) (log enrichment); library NNK2; higher = more nucleation; inactive = no reads after selection. The procedure, abridged:
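The nucleation score is the log enrichment of output over input reads, calculated with DiMSum and centred on the mode score of non-aggregating sequences. Sequences with under 100 input reads were excluded. Reads came from Illumina sequencing of plasmid inserts from psi-negative yeast expressing Sup35N fused to peptides of 20 random codons, induced 24 hours with 100 μM copper sulfate and grown 7 days at 30°C without adenine and uracil.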
For the substance PDISKECLTIGNGSACELTD, the amyloid nucleation score is 0.827 ± 0.28.

PDVVNNGGSYHLHWGCWCW displayed an amyloid nucleation score of 3.25 ± 0.14.

PEFICYCANSACDWSTYCIG yielded an amyloid nucleation score of 7.356 ± 0.036.

PEFITEFQALASFEYVMLRF: the amyloid nucleation score is -1.23 ± 0.41.

On to PFDFWRLISSLG, for which the amyloid nucleation score came to 0.531 ± 0.81.

Substance PFFLMISAVISHHNEHRHTM had an amyloid nucleation score of 5.926 ± 0.058.

Substance PFMRYPWYFIAGYV showed an amyloid nucleation score of -1.52 ± 0.49.

For the substance PFRKDVTLPLIFVLHVLQPD, the amyloid nucleation score is -0.191 ± 0.54.

PFYLVRRGWNIWNSNGVECH had an amyloid nucleation score of -0.161 ± 1.1.

Take PGDGTFLMFLACGCFRPFCG: the amyloid nucleation score was -0.181 ± 0.49.

PGLLQGLKSGWSKTYKLLTR registered an amyloid nucleation score of 0.808 ± 0.8.

Take PGSRTWFGTMLAPDTCLHEM: the amyloid nucleation score was 1.7 ± 0.16.

In turn, PHDGMHINT showed an amyloid nucleation score of 1.53 ± 0.31.

For the substance PILEIYVCGSLMYIFNITIV, the amyloid nucleation score amounted to 6.691 ± 0.033.

For PINKGKWCSTNFNAGITRI, the amyloid nucleation score is -0.01 ± 0.61.

Turning to PIRPVLWVQFVKTQYGPMIP, the amyloid nucleation score came out at 4.68 ± 0.098.

For the substance PISTSLADR, the amyloid nucleation score was 1.21 ± 0.42.

In turn, PIYLIC yielded an amyloid nucleation score of -0.686 ± 0.28.

PLAVGRCGGIAYSVWCTVNL showed an amyloid nucleation score of 5.15 ± 0.078.

PLERKRLSHCRWLGRRRLGG: the amyloid nucleation score came out at 1 ± 0.34.

In the case of PLGPNSTYFVWASSWAFYRP, the amyloid nucleation score is -1.65 ± 0.78.

Substance PLILGGGLLWIVC displayed an amyloid nucleation score of 0.201 ± 0.74.

With PLRNGDGVSFLGSVLSWPQA, the amyloid nucleation score was -0.294 ± 1.1.

Regarding PLWVEGFMCSNGMCILGRSG, the amyloid nucleation score turned out to be 1.77 ± 0.14.

PMCPMSIVLCSATLLLELFV yielded an amyloid nucleation score of 5.414 ± 0.037.

PMISFSLTMRDNCYSGWLCN displayed an amyloid nucleation score of 1.63 ± 0.21.

PMKLTILDTNGCNINRAPFS had an amyloid nucleation score of -1.02 ± 1.1.

The substance PMLEFWFMAWIEMFTYKKCC gave an amyloid nucleation score of 1.8 ± 0.53.

For PMMSIAMCVSSTPLRYFRVR, the amyloid nucleation score turned out to be 2 ± 0.12.

PMMWESESYPLIF displayed an amyloid nucleation score of -0.268 ± 0.79.

On to PMYRILNSTKESSGFALRGP, for which the amyloid nucleation score is -0.952 ± 0.45.

On to PNDHNQLQGPMLSLPPVKQV, for which the amyloid nucleation score is -0.359 ± 0.41.

PNIKNIT: the amyloid nucleation score stood at 2.38 ± 0.24.

In turn, PNRIFFTLFCLTKYIIPMFM returned an amyloid nucleation score of -1.33 ± 0.75.

PPRKTIELCSTQP: the amyloid nucleation score came out at 0.7 ± 0.35.

The substance PPTTT returned an amyloid nucleation score of 0.621 ± 0.43.

In turn, PQGDSMTVCFQLVT had an amyloid nucleation score of 1.28 ± 0.61.

In turn, PQHYVMGYVCWDVSVVLRSP gave an amyloid nucleation score of 2.91 ± 0.092.

In turn, PQLSKVLGWNYRCVNLSIW registered an amyloid nucleation score of 4.93 ± 0.086.

Take PRGAPNVFDFTLNFSLKQVA: the amyloid nucleation score is -0.551 ± 0.35.

In turn, PRGLATRPLFNRVYLHWYLL had an amyloid nucleation score of -0.639 ± 0.61.

PRLKMLRWAGVNQS: the amyloid nucleation score is -0.011 ± 0.4.

PRMRWAVCERP: the amyloid nucleation score came to 4.11 ± 0.096.

In the case of PRRSNTCWNSCISEMIGIRS, the amyloid nucleation score amounted to 0.664 ± 0.51.

In the case of PRSVVPYR, the amyloid nucleation score was found to be 0.5 ± 0.31.

For the substance PRVPCTHHMPGW, the amyloid nucleation score is 0.027 ± 0.65.

The substance PRWAKYYVLSRC returned an amyloid nucleation score of -1.6 ± 1.1.

PRWKHLTWIP: the amyloid nucleation score was -0.349 ± 0.64.

For PSFFCKWKSLYPTVNVCVVN, the amyloid nucleation score is -0.073 ± 0.49.

In turn, PSITPLACHHTRCNW yielded an amyloid nucleation score of -0.881 ± 0.28.

For PSLLFFSCV, the amyloid nucleation score is -0.366 ± 0.56.

For the substance PSSDRMSKCVFRVRNCQEAL, the amyloid nucleation score was determined as 0.157 ± 0.55.

With PTMYWFPPETATSPPYGPPG, the amyloid nucleation score was 3.54 ± 0.1.

PTRDKVATEGHGNGLIYNRF registered an amyloid nucleation score of 0.306 ± 0.65.

The substance PVFVLNVLLVILDPFLGLSN showed an amyloid nucleation score of -0.237 ± 0.34.

As for PVGLY, the amyloid nucleation score was -0.308 ± 0.42.

PVPNYCSEII yielded an amyloid nucleation score of -1.1 ± 1.

Substance PVYPAAYWIVSDGGCNVSWE had an amyloid nucleation score of -0.789 ± 0.37.

Substance PWCTWSFVADLENSYRRWVR came in with an amyloid nucleation score of 2.57 ± 0.12.

PYFCDIMNGTCRYSLYGFSM had an amyloid nucleation score of 0.37 ± 0.51.

Substance PYLPLRYFCWGSK had an amyloid nucleation score of -0.249 ± 0.79.

Consider QAFPDLTVVRACYMHLL, for which the amyloid nucleation score was 0.54 ± 0.25.

QAHVQILYKL displayed an amyloid nucleation score of 5.95 ± 0.054.

QARLLSYLGDLVLASSWKVL registered an amyloid nucleation score of -0.891 ± 0.64.

QCSIVWR showed an amyloid nucleation score of 6.61 ± 0.076.

QCYAMSSLMMLYLFFLWGCG: the amyloid nucleation score is -1.05 ± 0.55.

The substance QDGFRMYVLFDYNQCREFCS came in with an amyloid nucleation score of 1.23 ± 0.26.

Turning to QDLVGGCQLSHHHCNLSCGF, the amyloid nucleation score result is “inactive”.

Consider QDNRYPLFVLSTLLSLIFLL, for which the amyloid nucleation score result is “inactive”.

Take QEVRSF: the amyloid nucleation score was found to be 0.6 ± 0.66.

QFAHFKNLWVFVLSCRWLPT registered an amyloid nucleation score of -0.158 ± 0.35.

Substance QFDTPNTT displayed an amyloid nucleation score of -0.169 ± 0.54.

QFFMWTGGH yielded an amyloid nucleation score of 2.84 ± 0.1.

With QFHFWMQRMMFPLEFVIWVW, the amyloid nucleation score amounted to 1.33 ± 0.34.

The substance QFILFCIPTPNQ displayed an amyloid nucleation score of 4.93 ± 0.08.

QFRTIHAHYNFFG gave an amyloid nucleation score of 7.68 ± 0.048.

The substance QGLSCEGILWLVEYSQTFFG registered an amyloid nucleation score of -1.27 ± 1.1.

As for QGVDNGDRGRGRNLWASMRR, the amyloid nucleation score was determined as 1.34 ± 0.39.

For the substance QGYLLFN, the amyloid nucleation score worked out at 0.467 ± 0.19.

Substance QICHHIDYVFRCHDI had an amyloid nucleation score of 0.585 ± 0.8.

With QIFFWSSFN, the amyloid nucleation score result was “inactive”.

QIHGVTFFSQRTGTCASEP yielded an amyloid nucleation score of -0.875 ± 0.44.

QKACWNPGQRLLVTDLHYQP had an amyloid nucleation score of 0.27 ± 0.64.

Take QLALLMFMQTFNSYS: the amyloid nucleation score worked out at 7.43 ± 0.059.

Regarding QLFAVQSLCRKRRQLRWLPT, the amyloid nucleation score was determined as 0.463 ± 0.64.

As to QLHIWVVIRYPLYLINKTVW, the amyloid nucleation score amounted to 0.436 ± 0.8.

Consider QLTRTVIYCLLFSAFHFYIS, for which the amyloid nucleation score turned out to be 2.39 ± 0.22.

In turn, QLVFYSNFVSKDVNVDLQWL had an amyloid nucleation score of 5.75 ± 0.062.

For QLVGSLGGAQGTAGRYRYTG, the amyloid nucleation score is 0.658 ± 0.51.

For QLYLTVTNGFVRCTTASDVL, the amyloid nucleation score worked out at 1.14 ± 0.47.

The substance QMISLYAKQGVFPFGLSCSC yielded an amyloid nucleation score of 2.02 ± 0.11.

Substance QMLDTRSLGNDYNYNVYSLA returned an amyloid nucleation score of -1.41 ± 0.39.

QNCQFGMH came in with an amyloid nucleation score of 0.88 ± 0.48.

The substance QNFNILIGRGDVY came in with an amyloid nucleation score of 1.6 ± 0.23.

In turn, QRDDVISRCVYHYFKVVPGA displayed an amyloid nucleation score of -0.183 ± 0.55.

As to QRGFLRVPSLWCSFCLH, the amyloid nucleation score is -0.176 ± 1.1.

Turning to QRGRGERMFITQCLVDRMCF, the amyloid nucleation score was -0.117 ± 0.31.

With QRMTNMSF, the amyloid nucleation score was -1.27 ± 1.

For QRQDDSVFHDVSHLGQGSSK, the amyloid nucleation score came out at 9.066 ± 0.078.

As for QRVFDLKSGFGLNRDILVCL, the amyloid nucleation score entry was “inactive”.

Regarding QSAFSKF, the amyloid nucleation score result is “inactive”.

Regarding QSAVICVGRCGNCHPPTEL, the amyloid nucleation score came out at 2.87 ± 0.1.

As to QSLIDSVHVALHKLLRRYVK, the amyloid nucleation score is -0.232 ± 0.65.

In the case of QSRSYFRRGVTSCLHPGWET, the amyloid nucleation score came out at 0.452 ± 0.53.

As to QSTSQLRLYELSR, the amyloid nucleation score is -0.206 ± 1.1.

QTGCSITFLKFGRSAVSTVK came in with an amyloid nucleation score of 0.378 ± 0.27.

The substance QTMVCTTISAPKSGSAWERS displayed an amyloid nucleation score of 0.109 ± 0.37.

In turn, QVCRDDYEVDFLGCGCPRGH returned an amyloid nucleation score of -0.588 ± 0.44.

QVFRFSYKCPCHAVG had an amyloid nucleation score of 1.75 ± 0.15.

QVGKQADFRVAWLRVIHVF had an amyloid nucleation score of 0.292 ± 0.56.

Regarding QVIFI, the amyloid nucleation score result is “inactive”.

Consider QVLIIPLWKNGLRTIIRWL, for which the amyloid nucleation score is 0.106 ± 1.

In turn, QVPGYIAQSKML came in with an amyloid nucleation score of 0.407 ± 0.43.

As for QVSDVRDLNFWISVTHVEVG, the amyloid nucleation score was determined as 3.4 ± 0.12.

Take QWCLSNNVLWEMGVW: the amyloid nucleation score result was “inactive”.

On to QWIAGVYV, for which the amyloid nucleation score worked out at 3.23 ± 0.048.

Regarding QYRFFVYKLRRQIIYV, the amyloid nucleation score was -0.191 ± 1.1.

Substance QYWQYWSWIGCVCLLCGWRF registered an amyloid nucleation score of 0.91 ± 0.26.

On to RAANLSLHSNGDTGGESVSD, for which the amyloid nucleation score entry was “inactive”.

RAKTNSVGDLQYGIHVPMKG registered an amyloid nucleation score of -0.043 ± 0.37.

Substance RARFHFVKTCSTQRSMPHMG displayed an amyloid nucleation score of 3.21 ± 0.073.

In turn, RAVEEYAVPS returned an amyloid nucleation score of 0.878 ± 0.35.

In turn, RAYCAYTLR yielded an amyloid nucleation score of 5.94 ± 0.071.

RCEFFGVGMSREKNMGCSKC showed an amyloid nucleation score of 0.875 ± 0.47.

Regarding RCEFSACMCGVCGAYKCMRF, the amyloid nucleation score was determined as 5.3 ± 0.064.

With RCFSTHVAQDQLFVY, the amyloid nucleation score entry was “inactive”.

As to RCKIRSLFSNLYPDSVFTLT, the amyloid nucleation score entry is “inactive”.

As for RCKYWNTKCTTIYRGRVSYL, the amyloid nucleation score is -0.733 ± 0.29.

For the substance RCLTELTNETNYVGAG, the amyloid nucleation score was 0.405 ± 0.3.

The substance RCPGCDE came in with an amyloid nucleation score of 1.26 ± 0.25.

For RDNRSLTELLNRTMVHFVIM, the amyloid nucleation score entry is “inactive”.

For RDVRQVQRWSYCWRARTRSA, the amyloid nucleation score was found to be 1.19 ± 0.25.

The substance REAAVHRLIAWIGFRCRCQV gave an amyloid nucleation score of -0.317 ± 1.1.

Turning to RECFGGVQYRVRFSKFPYES, the amyloid nucleation score is -0.663 ± 0.5.

Substance REDGSPVGLLGGDHWVDFAQ yielded an amyloid nucleation score of 1.38 ± 0.19.

For the substance REEYCSFTICWSLDALHDRG, the amyloid nucleation score turned out to be 0.527 ± 0.65.

In turn, REFDRNFTPYPSQQELPIWW registered an amyloid nucleation score of 0.827 ± 0.39.

Turning to REFLMD, the amyloid nucleation score result is “inactive”.

The substance REGVQVIQTGLVEYKLG returned an amyloid nucleation score of -0.029 ± 0.79.

For the substance REIARGRMYLGSPGLVDIVA, the amyloid nucleation score was -0.232 ± 0.76.
